Assay results: patent US11015206B2, “Compositions and methods comprising sequences having hydroxyphenylpyruvate dioxygenase (HPPD) activity” (PIONEER HI-BRED INTERNATIONAL, INC., priority 2014, dated 2021)
Substitutions are numbered along the chain they refer to. One block for each molecule: values may come before it.

Legend:
Type in all cases: biochemical, Z. mays
[1] = tested on: 4-hydroxyphenylpyruvate dioxygenase (HPPD); assay: OFF rate ratio: release of inhibitor from pre-formed enzyme-inhibitor complex; conditions: Table 7; tembotrione; combinatorial variants
Procedure, shortened: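 HPPD (7.2 μM) pre-incubated 1 h at RT with inhibitor (8 μM), then diluted into 25 mM Hepes pH 7, 2 mM ascorbate, 10 μM FeSO4, 100 μM HPP, 50 nM HGD; A320 followed 12 min. Ratio = steady-state rate with inhibitor over initial rate of inhibitor-free enzyme.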

[2] = tested on: 4-hydroxyphenylpyruvate dioxygenase (HPPD); assay: ON rate ratio: HPPD reaction rate with vs without inhibitor in the 70 to 90 second interval; conditions: Table 7; tembotrione; combinatorial variants
Procedure, shortened: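 Time courses of HPPD reactions, 60 or 120 nM enzyme with 100 μM HPP substrate, run with and without 4 μM inhibitor (e.g. mesotrione, tembotrione). Value is the rate with inhibitor over rate without, taken over 70–90 s; higher ratio reflects slower kON.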

[3] = tested on: 4-hydroxyphenylpyruvate dioxygenase (HPPD); assay: Estimate of kcat from initial rate at saturating hydroxyphenylpyruvate without inhibitor (ON rate ratio assay)
Procedure, shortened: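 Reactions used 60 or 120 nM HPPD and saturating 100 μM hydroxyphenylpyruvate without inhibitor. kcat was estimated from the initial rate at the known enzyme concentration.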

[4] = tested on: 4-hydroxyphenylpyruvate dioxygenase (HPPD); assay: Insensitivity parameter (ON × OFF) and trait fitness (ON × OFF × kcat/KM or × kcat); set-up: key to ON × OFF / Insensitivity, mesotrione, ON × OFF / Insensitivity, tembotrione, ON × OFF / Insensitivity, topramezone, ON × OFF / Insensitivity, sulcotrione, ON × OFF / Insensitivity, isoxaflutole (DKN), ON × OFF: insensitivity = ON rate ratio × OFF rate ratio (surrogate for KD)
Procedure, shortened: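 Calculated, not measured directly: ON rate ratio × OFF rate ratio gives an insensitivity parameter serving as a KD surrogate.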

[5] = Table 7, combinatorial variants
[6] = Table 7, tembotrione, combinatorial variants

OFF rate ratio [1]: 0.248
ON rate ratio [2]: 0.752
ON × OFF ([4]; Megatable 3, shuffled variants): 0.186
ON × OFF [4, 6]: 0.186
B2: P056028-G-04 (protein)
chain: MGPTPTATAAGAAVAAASAAEQAAFRLVGHRNFVRFNPRSDRFQTLAFHHVELWCADAASAAGRFSFALGVPLAARSDLSTGNSAHASLLLRSGSLSLLFTAPYAHGADAATAALPSFSAAAARRFAADHGLAVRAVALRVADAEDAFRASVAAGARPAFGPVDLGRGFRLAEVELYGDVVLRYVSYPDGAAGEPFLPGFEGVASPGAADLGLSRFDHIVGNVPELAPAAAYMAGFTGFHEFAEFTTEDVGTTESGLNSMALANNSENVLLPLNEPVHGTKRRSQIQTFLDHHGGPGVQHIALASDDVLRTLREMRARSAMGGFEFLPPPLSDYYDGVRRCAGDVLTEAQINECQELGVMVDRDDEGVLLQIFTKPVGDRPTFFIELIQRIGCMEKDEKGQEYQKGGCGGFGKGNFGQLFKSIEDYEKSLEAKQAAAAATAQGS
modifications: Zea mays variant form created by artificial means.
kcat ([3]; Megatable 3, shuffled variants): 0.227 s⁻¹
kcat [3, 5]: 0.227 s⁻¹
ON × OFF × kcat ([4]; Megatable 3, shuffled variants): 2.54
ON × OFF × kcat [4, 6]: 2.54

OFF rate ratio [1]: 0.304
ON rate ratio [2]: 0.761
ON × OFF ([4]; Megatable 3, shuffled variants): 0.231
ON × OFF [4, 6]: 0.231
B4: P056028-G-02 (protein)
chain: B2 chain with L211Y, M233V, I385L, L387I
modifications: Zea mays variant form created by artificial means.
kcat ([3]; Megatable 3, shuffled variants): 0.383 s⁻¹
kcat [3, 5]: 0.383 s⁻¹
ON × OFF × kcat ([4]; Megatable 3, shuffled variants): 5.30
ON × OFF × kcat [4, 6]: 5.30

OFF rate ratio [1]: 0.245
ON rate ratio [2]: 0.660
ON × OFF ([4]; Megatable 3, shuffled variants): 0.161
ON × OFF [4, 6]: 0.161
B6: P056028-F-04 (protein)
chain: B2 chain with L211Y, I385L
modifications: Zea mays variant form created by artificial means.
kcat ([3]; Megatable 3, shuffled variants): 0.278 s⁻¹
kcat [3, 5]: 0.278 s⁻¹
ON × OFF × kcat ([4]; Megatable 3, shuffled variants): 2.70
ON × OFF × kcat [4, 6]: 2.70

OFF rate ratio [1]: 0.377
ON rate ratio [2]: 0.705
ON × OFF ([4]; Megatable 3, shuffled variants): 0.266
ON × OFF [4, 6]: 0.266
B7: P056028-F-08 (protein)
chain: B2 chain with P158K, R340K, I385L, L387I
modifications: Zea mays variant form created by artificial means.
kcat ([3]; Megatable 3, shuffled variants): 0.202 s⁻¹
kcat [3, 5]: 0.202 s⁻¹
ON × OFF × kcat ([4]; Megatable 3, shuffled variants): 3.23
ON × OFF × kcat [4, 6]: 3.23

OFF rate ratio [1]: 0.259
ON rate ratio [2]: 0.607
ON × OFF ([4]; Megatable 3, shuffled variants): 0.157
ON × OFF [4, 6]: 0.157
B9: P056028-G-10 (protein)
chain: B2 chain with P158K, L211Y, L327P, I385L, L387I, G417Q
modifications: Zea mays variant form created by artificial means.
kcat ([3]; Megatable 3, shuffled variants): 0.488 s⁻¹
kcat [3, 5]: 0.488 s⁻¹
ON × OFF × kcat ([4]; Megatable 3, shuffled variants): 4.61
ON × OFF × kcat [4, 6]: 4.61

OFF rate ratio [1]: 0.322
ON rate ratio [2]: 0.706
ON × OFF ([4]; Megatable 3, shuffled variants): 0.228
ON × OFF [4, 6]: 0.228
B14: P056028-F-11 (protein)
chain: B2 chain with A191G, L211Y, N265D, I385L, L387I
modifications: Zea mays variant form created by artificial means.
kcat ([3]; Megatable 3, shuffled variants): 0.368 s⁻¹
kcat [3, 5]: 0.368 s⁻¹
ON × OFF × kcat ([4]; Megatable 3, shuffled variants): 5.04
ON × OFF × kcat [4, 6]: 5.04

OFF rate ratio [1]: 0.033
ON rate ratio [2]: 0.213
ON × OFF ([4]; Megatable 3, shuffled variants): 0.007
ON × OFF [4, 6]: 0.007
B15: Mz wt (protein)
chain: MGPTPTAAAAGAAVAAASAAEQAAFRLVGHRNFVRFNPRSDRFHTLAFHHVELWCADAASAAGRFSFGLGAPLAARSDLSTGNSAHASLLLRSGSLSFLFTAPYAHGADAATAALPSFSAAAARRFAADHGLAVRAVALRVADAEDAFRASVAAGARPAFGPVDLGRGFRLAEVELYGDVVLRYVSYPDGAAGEPFLPGFEGVASPGAADYGLSRFDHIVGNVPELAPAAAYFAGFTGFHEFAEFTTEDVGTAESGLNSMVLANNSENVLLPLNEPVHGTKRRSQIQTFLDHHGGPGVQHMALASDDVLRTLREMQARSAMGGFEFMAPPTSDYYDGVRRRAGDVLTEAQIKECQELGVLVDRDDQGVLLQIFTKPVGDRPTLFLEIIQRIGCMEKDEKGQEYQKGGCGGFGKGNFSQLFKSIEDYEKSLEAKQAAAAAAAQGS
modifications: Zea mays
kcat ([3]; Megatable 3, shuffled variants): 1.62 s⁻¹
kcat [3, 5]: 1.62 s⁻¹
ON × OFF × kcat ([4]; Megatable 3, shuffled variants): 0.68
ON × OFF × kcat [4, 6]: 0.68

Continued, molecule first:

B1: P056028-E-09 (protein)
chain: B2 chain with A191G, P206Q, L211Y, R340K, I385L, L387I
modifications: Zea mays variant form created by artificial means.
OFF rate ratio [1]: 0.308
ON rate ratio [2]: 0.676
kcat ([3]; Megatable 3, shuffled variants): 0.248 s⁻¹
kcat [3, 5]: 0.248 s⁻¹
ON × OFF ([4]; Megatable 3, shuffled variants): 0.208
ON × OFF × kcat ([4]; Megatable 3, shuffled variants): 3.10
ON × OFF [4, 6]: 0.208
ON × OFF × kcat [4, 6]: 3.10

B3: P056028-F-09 (protein)
chain: B2 chain with P206Q, L211Y, I385L
modifications: Zea mays variant form created by artificial means.
OFF rate ratio [1]: 0.360
ON rate ratio [2]: 0.700
kcat ([3]; Megatable 3, shuffled variants): 0.285 s⁻¹
kcat [3, 5]: 0.285 s⁻¹
ON × OFF ([4]; Megatable 3, shuffled variants): 0.252
ON × OFF × kcat ([4]; Megatable 3, shuffled variants): 4.30
ON × OFF [4, 6]: 0.252
ON × OFF × kcat [4, 6]: 4.30

B5: P056028-G-06 (protein)
chain: B2 chain with L182M, P206Q, L211Y, S214N, R340K, I385L
modifications: Zea mays variant form created by artificial means.
OFF rate ratio [1]: 0.382
ON rate ratio [2]: 0.725
kcat ([3]; Megatable 3, shuffled variants): 0.2 s⁻¹
kcat [3, 5]: 0.2 s⁻¹
ON × OFF ([4]; Megatable 3, shuffled variants): 0.277
ON × OFF × kcat ([4]; Megatable 3, shuffled variants): 3.30
ON × OFF [4, 6]: 0.277
ON × OFF × kcat [4, 6]: 3.30

B8: P056028-F-06 (protein)
chain: B2 chain with A191G, P206S, S214N, R340K, E356K, I385L
modifications: Zea mays variant form created by artificial means.
OFF rate ratio [1]: 0.305
ON rate ratio [2]: 0.739
kcat ([3]; Megatable 3, shuffled variants): 0.242 s⁻¹
kcat [3, 5]: 0.242 s⁻¹
ON × OFF ([4]; Megatable 3, shuffled variants): 0.225
ON × OFF × kcat ([4]; Megatable 3, shuffled variants): 3.25
ON × OFF [4, 6]: 0.225
ON × OFF × kcat [4, 6]: 3.25

B10: P056028-F-07 (protein)
chain: B2 chain with A191G, L211Y, R340K, I385L, L387I, Q434H
modifications: Zea mays variant form created by artificial means.
OFF rate ratio [1]: 0.322
ON rate ratio [2]: 0.735
kcat ([3]; Megatable 3, shuffled variants): 0.357 s⁻¹
kcat [3, 5]: 0.357 s⁻¹
ON × OFF ([4]; Megatable 3, shuffled variants): 0.236
ON × OFF × kcat ([4]; Megatable 3, shuffled variants): 5.04
ON × OFF [4, 6]: 0.236
ON × OFF × kcat [4, 6]: 5.04

B11: P056028-G-05 (protein)
chain: B2 chain with A191G, P206Q, S214N, R340K, L387I, G417Q, Q434R
modifications: Zea mays variant form created by artificial means.
OFF rate ratio [1]: 0.361
ON rate ratio [2]: 0.739
kcat ([3]; Megatable 3, shuffled variants): 0.278 s⁻¹
kcat [3, 5]: 0.278 s⁻¹
ON × OFF ([4]; Megatable 3, shuffled variants): 0.267
ON × OFF × kcat ([4]; Megatable 3, shuffled variants): 4.47
ON × OFF [4, 6]: 0.267
ON × OFF × kcat [4, 6]: 4.47

B12: P056028-F-03 (protein)
chain: B2 chain with A191G, L211Y, L387I, M394T, G417S
modifications: Zea mays variant form created by artificial means.
OFF rate ratio [1]: 0.491
ON rate ratio [2]: 0.738
kcat ([3]; Megatable 3, shuffled variants): 0.217 s⁻¹
kcat [3, 5]: 0.217 s⁻¹
ON × OFF ([4]; Megatable 3, shuffled variants): 0.363
ON × OFF × kcat ([4]; Megatable 3, shuffled variants): 4.73
ON × OFF [4, 6]: 0.363
ON × OFF × kcat [4, 6]: 4.73

B13: P056028-F-10 (protein)
chain: B2 chain with A191G, L211Y, S214N, R340K, I385L, L387I
modifications: Zea mays variant form created by artificial means.
OFF rate ratio [1]: 0.291
ON rate ratio [2]: 0.726
kcat ([3]; Megatable 3, shuffled variants): 0.228 s⁻¹
kcat [3, 5]: 0.228 s⁻¹
ON × OFF ([4]; Megatable 3, shuffled variants): 0.211
ON × OFF × kcat ([4]; Megatable 3, shuffled variants): 2.89
ON × OFF [4, 6]: 0.211
ON × OFF × kcat [4, 6]: 2.89
